According to publication PMC4381051:
Read-outs that look alike come from different tables or passages of the source.

Tests used:
Mst77F Δ110C [1] = biological target: T1, Mst77F Δ110C (UniProt P16909 1-105); test: pull-down
T1 sequence: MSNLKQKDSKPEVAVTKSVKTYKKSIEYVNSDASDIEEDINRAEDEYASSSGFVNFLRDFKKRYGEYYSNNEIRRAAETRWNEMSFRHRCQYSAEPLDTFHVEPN

[2] = biological target: T2, Mst77F Δ110C;Mst77F Δ100N (Drosophila melanogaster?;Drosophila …, UniProt P16909;P16909 1-105;101-215, |); test: pull-down
T2 sequence 1: T1 sequence
T2 sequence 2: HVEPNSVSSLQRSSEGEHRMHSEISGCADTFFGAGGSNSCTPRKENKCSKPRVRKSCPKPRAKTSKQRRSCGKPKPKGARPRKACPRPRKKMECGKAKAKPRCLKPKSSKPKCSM

Mst77F WT [3] = biological target: T3, Mst77F WT (UniProt P16909 1-215); test: FP
T3 sequence: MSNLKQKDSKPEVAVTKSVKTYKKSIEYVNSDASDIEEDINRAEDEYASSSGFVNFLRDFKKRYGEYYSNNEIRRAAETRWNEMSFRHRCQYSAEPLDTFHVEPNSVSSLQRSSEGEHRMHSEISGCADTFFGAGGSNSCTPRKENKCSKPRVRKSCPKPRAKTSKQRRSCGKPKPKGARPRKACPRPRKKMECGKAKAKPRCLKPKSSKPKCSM

Mst77F WT [4] = biological target: T3, Mst77F WT; test: FP; remark: listed apart in the source
Mst77F CTD* = biological target: T4, Mst77F CTD* (UniProt P16909, CTD sequence randomized); test: FP
T4 sequence: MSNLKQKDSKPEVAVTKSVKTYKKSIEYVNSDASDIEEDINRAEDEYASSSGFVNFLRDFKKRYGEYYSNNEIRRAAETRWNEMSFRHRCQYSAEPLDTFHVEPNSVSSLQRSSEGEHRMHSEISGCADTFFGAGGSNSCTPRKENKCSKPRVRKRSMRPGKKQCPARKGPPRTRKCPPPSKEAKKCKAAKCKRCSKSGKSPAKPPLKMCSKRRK

Mst77F Δ110C [5] = biological target: T1, Mst77F Δ110C; test: FP

B1: random 12 bp DNA, biotinylated (dsDNA)
DNA 1: GTACCACGGTAG
DNA 2: CTACCGTGGTAC
B1: no binding (Mst77F Δ110C [1]); binds [2].

B2: poly-GC 12 bp DNA (dsDNA)
DNA 1: GCGCGCGCGCGC
DNA 2: GCGCGCGCGCGC
B2 gave a Kd (Mst77F WT [3]) of 170 ± 60 nM.

B3: random 12 bp DNA (dsDNA)
DNA 1: GTACCACGGTAG
DNA 2: CTACCGTGGTAC
With B3 the Kd (Mst77F WT [4]) was 110 ± 50 nM, the Kd (Mst77F CTD*) was 60 ± 10 nM and the binding result (Mst77F Δ110C [5]) was “no binding”.

B4: poly-AT 12 bp DNA (dsDNA)
DNA 1: ATATATATATAT
DNA 2: ATATATATATAT
B4 showed a Kd (Mst77F WT [3]) of 70 ± 30 nM.
